The values below come from article PMC7600425, “Modulation of Guanylate Cyclase Activating Protein 1 (GCAP1) Dimeric Assembly by Ca^2+ or Mg^2+: Hints to Understand Protein Activity” (Biomolecules, 2020).

One data set addresses RetGC (Homo sapiens) (UniProt Q02846). To be noted: cited from earlier work.
Data set [1] deals with the molecule itself. Put plainly: SEC; analytical SEC, Superdex 75 Increase 10/300 GL, dilution series; 20 mM Tris-HCl pH 8.0, 100 mM NaCl, 1 mM DTT, 5 mM MgCl2, 2.5 mM EGTA; Mg2+-bound; Kd from a 3-parameter fit of elution volume against concentration; dimer to monomers. For orientation: Size exclusion chromatography separates by hydrodynamic size, large species first.
Data set [2] deals with the molecule itself. The data set is described as follows: SEC; analytical SEC, Superdex 75 Increase 10/300 GL, six dilutions (87-2 µM injected); 20 mM Tris-HCl pH 8.0, 100 mM NaCl, 1 mM DTT, 5 mM CaCl2; Ca2+-bound; Kd from a 3-parameter fit of elution volume against concentration; dimer to monomers.
Data set [3] concerns the molecule itself. The data set is described as follows: MST; NT-647-NHS-labelled hGCAP1 with 16 dilutions of unlabelled hGCAP1 (46.6 µM to 11.4 nM); 20 mM Tris-HCl, 100 mM NaCl, pH 7.5, 1 mM DTT, 5 mM CaCl2, 0.05% Tween20; 24 °C; Ca2+-bound; dimer to monomers.
Data set [4] concerns the molecule itself. The data set is described as follows: MST; NT-647-NHS-labelled hGCAP1 with dilutions of unlabelled hGCAP1; 20 mM Tris-HCl, 150 mM KCl, 5 mM MgCl2, 2.5 mM EGTA, pH 7.5, 1 mM DTT, 0.05% Tween20; Mg2+-bound; dimer to monomers.

Chain of RetGC (Homo sapiens) (Q02846 52-1103): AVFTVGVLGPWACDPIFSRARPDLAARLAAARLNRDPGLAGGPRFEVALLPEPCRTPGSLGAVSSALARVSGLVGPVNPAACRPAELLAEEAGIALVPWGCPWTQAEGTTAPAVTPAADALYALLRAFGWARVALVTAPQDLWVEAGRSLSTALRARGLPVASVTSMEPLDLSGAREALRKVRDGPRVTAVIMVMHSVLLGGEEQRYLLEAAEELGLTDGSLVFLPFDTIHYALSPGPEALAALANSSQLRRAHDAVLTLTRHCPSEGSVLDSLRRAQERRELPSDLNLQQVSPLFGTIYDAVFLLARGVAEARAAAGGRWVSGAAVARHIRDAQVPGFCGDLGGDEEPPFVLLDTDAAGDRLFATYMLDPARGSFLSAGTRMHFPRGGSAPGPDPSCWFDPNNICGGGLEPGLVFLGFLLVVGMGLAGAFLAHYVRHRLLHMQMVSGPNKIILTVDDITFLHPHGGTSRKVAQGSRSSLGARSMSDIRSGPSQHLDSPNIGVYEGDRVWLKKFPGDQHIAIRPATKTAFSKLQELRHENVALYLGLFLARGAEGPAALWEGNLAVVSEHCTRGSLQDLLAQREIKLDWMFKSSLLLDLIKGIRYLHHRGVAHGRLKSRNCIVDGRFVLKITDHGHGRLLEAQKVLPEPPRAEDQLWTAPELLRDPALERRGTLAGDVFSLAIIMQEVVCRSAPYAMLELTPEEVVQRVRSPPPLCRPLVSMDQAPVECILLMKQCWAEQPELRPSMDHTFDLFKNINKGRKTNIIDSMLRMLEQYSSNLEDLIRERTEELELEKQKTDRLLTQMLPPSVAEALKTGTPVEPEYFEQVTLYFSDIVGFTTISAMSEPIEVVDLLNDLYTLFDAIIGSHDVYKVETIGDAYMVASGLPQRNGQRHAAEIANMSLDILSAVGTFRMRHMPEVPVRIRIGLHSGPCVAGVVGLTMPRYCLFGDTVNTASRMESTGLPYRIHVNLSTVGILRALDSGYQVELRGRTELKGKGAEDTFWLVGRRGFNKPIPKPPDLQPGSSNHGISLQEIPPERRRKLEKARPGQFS

One may read the Kd as the concentration at which binding is half-saturated. Regarding GCAP1 (from UniProt P43080), the Kd with RetGC (Homo sapiens) is 3.2 µM.

B1: human guanylyl cyclase-activating protein 1 (hGCAP1), N-terminally myristoylated, E6S (natural protein, UniProt P43080 1-201, looked up)
chain: MGNVMSGKSVEELSSTECHQWYKKFMTECPSGQLTLYEFRQFFGLKNLSPSASQYVEQMFETFDFNKDGYIDFMEYVAALSLVLKGKVEQKLRWYFKLYDVDGNGCIDRDELLTIIQAIRAINPCSDTTMTAEEFTDTVFSKIDVNGDGELSLEEFIEGVQKDQMLLDTLTRSLDLTRIVRRLQNGEQDEEGADEAAEAAG
modifications: N-terminal myristoylation (myristoylated Gly at the N-term); in the MST experiments the labelled copy carries the dye NT-647-NHS on primary amines (lysine residues), about 1:1
notes: printed as 201 amino acids, 22.9 kDa; E6S needed for myristoylation in E. coli; In MST a dye-labelled copy was titrated with unlabelled protein; also called human GCAP1; recombinant human (h) GCAP1; source: E. coli BL21-CodonPlus RP, co-expressed with yeast N-myristoyltransferase, purified (ion exchange, SEC)
For orientation: stoichiometry N means the number of molecules, sites or subunits per partner or assembly. B1: the Kd is 45 ± 15 µM in data set [1], 8.8 ± 0.7 µM in data set [2], 9.4 ± 1.3 µM in data set [3] and 77.2 ± 8.9 µM in data set [4]. In addition, the “stoichiometry N” value in data set [2] came to 2.
